According to PMC4593227, “Biochemical effects of mutations in the gene encoding the alpha subunit of eukaryotic initiation factor (eIF) 2B associated with Vanishing White Matter disease” (BMC Medical Genetics, 2015):

B1: His6-myc-tagged wild-type eIF2Bα [human] / myc-tagged eIF2Bγ [not stated] (parent)
chain 1: MDDKELIEYFKSQMKEDPDMASAVAAIRTLLEFLKRDKGETIQGLRANLTSAIETLCGVDSSVAVSSGGELFLRFISLASLEYSDYSKCKKIMIERGELFLRRISLSRNKIADLCHTFIKDGATILTHAYSRVVLRVLEAAVAAKKRFSVYVTESQPDLSGKKMAKALCHLNVPVTVVLDAAVGYIMEKADLVIVGAEGVVENGGIINKIGTNQMAVCAKAQNKPFYVVAESFKFVRLFPLNQQDVPDKFKYKADTLKVAQTGQDLKEEHPWVDYTAPSLITLLFTDLGVLTPSAVSDELIKLYL
chain 2: MEFQAVVMAVGGGSRMTDLTSSIPKPLLPVGNKPLIWYPLNLLERVGFEEVIVVTTRDVQKALCAEFKMKMKPDIVCIPDDADMGTADSLRYIYPKLKTDVLVLSCDLITDVALHEVVDLFRAYDASLAMLMRKGQDSIEPVPGQKGKKKAVEQRDFIGVDSTGKRLLFMANEADLDEELVIKGSILQKHPRIRFHTGLVDAHLYCLKKYIVDFLMENGSITSIRSELIPYLVRKQFSSASSQQGQEEKEEDLKKKELKSLDIYSFIKEANTLNLAPYDACWNACRGDRWEDLSRSQVRCYVHIMKEGLCSRVSTLGLYMEANRQVPKLLSALCPEEPPVHSSAQIVSKHLVGVDSLIGPETQIGEKSSIKRSVIGSSCLIKDRVTITNCLLMNSVTVEEGSNIQGSVICNNAVIEKGADIKDCLIGSGQRIEAKAKRVNEVIVGNDQLMEI
B2: His6-myc-tagged wild-type eIF2Bα [human] / myc-tagged eIF2Bβ [not stated] (parent)
chain 1: B1 chain 1
chain 2: MPGSAAKGSELSERIESFVETLKRGGGPRSSEEMARETLGLLRQIITDHRWSNAGELMELIRREGRRMTAAQPSETTVGNMVRRVLKIIREEYGRLHGRSDESDQQESLHKLLTSGGLNEDFSFHYAQLQSNIIEAINELLVELEGTMENIAAQALEHIHSNEVIMTIGFSRTVEAFLKEAARKRKFHVIVAECAPFCQGHEMAVNLSKAGIETTVMTDAAIFAVMSRVNKVIIGTKTILANGALRAVTGTHTLALAAKHHSTPLIVCAPMFKLSPQFPNEEDSFHKFVAPEEVLPFTEGDILEKVSVHCPVFDYVPPELITLFISNIGGNAPSYIYRLMSELYHPDDHVL

Variants of: B1
Assay: Ni2+ agarose affinity purification (pull-down), western blot for myc tag, quantified
Settings: with myc-tagged eIF2Bγ; HEK293 cell lysates; 3 independent experiments; read off a plot

Question: For chain 1 P278R, which ratio to parent is on record?
Answer: Its ratio to parent is 0.95.

Question: How did the ratio to parent turn out when chain 1 N208Y was run?
Answer: The ratio to parent was 1.2.

Variants of: B2
Assay: as above
Settings: with myc-tagged eIF2Bβ; HEK293 cell lysates; 3 independent experiments; read off a plot

Question: Which ratio to parent does the source give for chain 1 N208Y here?
Answer: Its ratio to parent is 1.

Question: With chain 1 P278R as the variant, how does the ratio to parent read?
Answer: The ratio to parent was 0.66.
